Results from article PMC2782394.

T1: ROS3 (Arabidopsis thaliana, UniProt Q9FGT1 1-748)
T1 sequence: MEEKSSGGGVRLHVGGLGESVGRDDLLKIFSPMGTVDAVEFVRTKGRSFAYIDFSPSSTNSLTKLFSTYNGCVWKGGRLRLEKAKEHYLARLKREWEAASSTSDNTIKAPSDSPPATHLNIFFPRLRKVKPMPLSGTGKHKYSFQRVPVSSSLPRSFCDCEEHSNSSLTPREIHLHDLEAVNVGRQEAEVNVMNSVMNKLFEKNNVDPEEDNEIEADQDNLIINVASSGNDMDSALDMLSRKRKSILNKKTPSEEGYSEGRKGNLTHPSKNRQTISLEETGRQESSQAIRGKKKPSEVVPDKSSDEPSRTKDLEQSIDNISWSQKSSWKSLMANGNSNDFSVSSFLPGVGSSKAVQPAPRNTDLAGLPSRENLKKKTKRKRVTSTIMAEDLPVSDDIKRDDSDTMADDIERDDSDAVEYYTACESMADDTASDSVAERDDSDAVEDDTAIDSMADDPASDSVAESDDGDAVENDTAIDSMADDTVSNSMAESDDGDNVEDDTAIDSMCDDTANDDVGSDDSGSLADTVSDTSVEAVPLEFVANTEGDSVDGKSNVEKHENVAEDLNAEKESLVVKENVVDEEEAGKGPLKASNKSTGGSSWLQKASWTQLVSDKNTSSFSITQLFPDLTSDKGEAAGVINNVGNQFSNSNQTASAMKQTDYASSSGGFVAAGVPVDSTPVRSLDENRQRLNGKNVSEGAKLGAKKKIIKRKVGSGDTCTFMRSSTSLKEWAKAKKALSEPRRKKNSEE


Target: T1, ROS3
Assay: EMSA

Row | Binder | binding result
1 | GGGAGUCCGGAGACGUCGGCGGGGG (ssRNA) [RNA (c) 25-nt] | binds
2 | UCGGGAGGGAAGCGGAUGGGGGCCG (ssRNA) [RNA (d) 25-nt] | binds
